Target: T1, Recombinant human FAP (fibroblast activation protein) (human, UniProt Q12884 26-760)
T1 construct: Bought soluble recombinant protein; Chemically biotinylated for the HTRF screen; also called hFAP; biotinylated human FAP
T1 sequence (looked up): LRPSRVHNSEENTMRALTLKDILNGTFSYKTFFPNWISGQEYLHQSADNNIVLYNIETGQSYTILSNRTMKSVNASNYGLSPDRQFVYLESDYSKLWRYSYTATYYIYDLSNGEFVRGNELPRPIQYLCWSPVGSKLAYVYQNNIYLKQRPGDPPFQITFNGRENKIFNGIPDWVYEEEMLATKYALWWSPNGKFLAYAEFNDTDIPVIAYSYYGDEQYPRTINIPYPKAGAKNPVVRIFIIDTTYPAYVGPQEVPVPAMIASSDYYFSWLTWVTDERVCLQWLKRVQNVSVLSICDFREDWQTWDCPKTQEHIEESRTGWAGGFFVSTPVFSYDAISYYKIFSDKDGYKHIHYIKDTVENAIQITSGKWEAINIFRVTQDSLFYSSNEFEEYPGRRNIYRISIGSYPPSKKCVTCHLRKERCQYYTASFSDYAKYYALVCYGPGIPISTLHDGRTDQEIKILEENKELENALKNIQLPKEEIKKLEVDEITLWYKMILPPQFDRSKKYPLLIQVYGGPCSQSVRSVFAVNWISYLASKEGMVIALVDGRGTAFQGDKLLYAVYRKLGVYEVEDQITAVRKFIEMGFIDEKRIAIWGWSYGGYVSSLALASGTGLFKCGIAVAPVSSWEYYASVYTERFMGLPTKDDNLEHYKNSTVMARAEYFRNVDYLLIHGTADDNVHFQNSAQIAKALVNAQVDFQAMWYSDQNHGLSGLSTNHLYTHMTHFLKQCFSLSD
Experiment: SPR (ProteOn), human FAP immobilized on GLC chip
Protocol: Briefly, human FAP was diluted in 10 mM Na-acetate pH 5.3 buffer and covalently immobilized on a GLC chip (BioRad) to a level of around 2000 resonance units (RU). The interaction of ankyrin repeat protein and hFAP was then measured by injecting 200 μl running buffer (PBS, pH 7.4 containing 0.005% Tween 20®) containing serial dilutions of ankyrin repeat proteins covering a concentration range between 30 nM and 0.5 nM (on-rate measurement), followed by a running buffer flow for at least 25 minutes at a constant flow rate of 100 μl/min (off-rate measurement). The regeneration was performed using 15 μl of 10 mM Glycine pH 2 followed by 15 μl of 124 mM H₃PO₄. […] Based on the SPR traces obtained from the on-rate and off-rate measurements, the on- and off-rate of the corresponding ankyrin repeat protein—FAP interaction was determined.
Briefly, mouse FAP was diluted in 10 mM Na-acetate pH5.3 buffer and covalently immobilized on a GLC chip (BioRad) to a level of around 2000 resonance units (RU). The interaction of DARPin® protein #41 and mFAP was then measured by injecting 200 μl running buffer (PBS, pH7.4 containing 0.005% Tween20®) containing serial dilutions of DARPin® protein #41 covering a concentration range between 50 nM and 3 nM (on-rate measurement), followed by a running buffer flow for 30 minutes at a constant flow rate of 100 μl/min (off-rate measurement). […]

Kd: 264 pM
B1: DARPin® protein #41 (designed binder)
chain: MRGSHHHHHHGSDLGKKLLEAARAGQDDEVRELLKAGADVNAKDYFSHTPLHLAARNGHLKIVEVLLKAGADVNAKDFAGKTPLHLAANEGHLEIVEVLLKAGADVNAQDIFGKTPADIAADAGHEDIAEVLQKAAGSPTPTPTTPTPTPTTPTPTPTGSDLGEKLLVAALYGQDDEVRILLAAGADVNAKDQWGLTPLHKAALQGHLEIVEVLLKAGADVNAKDERGHTPLHWAARFGHLEIVEVLLKAGADVNAQDQKGYTPADLAALWGHEDIAEVLQKAA
notes: Fusion of a serum albumin-specific and a FAP-specific ankyrin repeat domain

From patent US20220242973A1 (Molecular Partners, published 2022)
